Common to all, as to test: cell-based or functional assay
One test has as its target human glucagon receptor (human, UniProt P47871 26-477).
Test [1] addresses human glucagon-like peptide 1 receptor (human, UniProt P43220 24-463).
For test [2], the target named is T1, human glucose-dependent insulinotropic polypeptide receptor (human, UniProt P48546 22-466).
T1 sequence (looked up): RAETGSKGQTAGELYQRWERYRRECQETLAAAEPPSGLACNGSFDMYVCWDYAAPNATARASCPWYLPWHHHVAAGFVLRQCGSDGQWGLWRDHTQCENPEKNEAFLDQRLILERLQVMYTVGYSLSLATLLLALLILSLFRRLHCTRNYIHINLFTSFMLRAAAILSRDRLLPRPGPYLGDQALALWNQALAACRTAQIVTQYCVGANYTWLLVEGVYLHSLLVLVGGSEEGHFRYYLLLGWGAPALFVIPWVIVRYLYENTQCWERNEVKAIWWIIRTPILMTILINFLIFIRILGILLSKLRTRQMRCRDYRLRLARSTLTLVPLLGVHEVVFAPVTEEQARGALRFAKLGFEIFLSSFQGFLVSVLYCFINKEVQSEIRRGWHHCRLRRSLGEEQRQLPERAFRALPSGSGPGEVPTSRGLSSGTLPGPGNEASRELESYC

Where no end group is shown, it is not given here. [ ]: non-standard residue; d: D form. Aib = CC(C)(N)C(=O)O

Chain of human glucagon receptor (P47871 26-477): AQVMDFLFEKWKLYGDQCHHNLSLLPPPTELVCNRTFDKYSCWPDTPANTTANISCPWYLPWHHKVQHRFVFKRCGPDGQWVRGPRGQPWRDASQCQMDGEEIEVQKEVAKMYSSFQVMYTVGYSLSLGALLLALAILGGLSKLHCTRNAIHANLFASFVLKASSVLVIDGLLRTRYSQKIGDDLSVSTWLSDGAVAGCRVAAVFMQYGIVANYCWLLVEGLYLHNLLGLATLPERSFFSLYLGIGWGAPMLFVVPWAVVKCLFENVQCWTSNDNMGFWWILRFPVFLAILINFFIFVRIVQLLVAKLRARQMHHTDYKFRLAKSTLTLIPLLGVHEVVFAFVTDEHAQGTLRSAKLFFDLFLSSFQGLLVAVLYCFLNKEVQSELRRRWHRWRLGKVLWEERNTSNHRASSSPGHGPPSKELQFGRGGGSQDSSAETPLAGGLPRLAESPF

B1: Compound No. 44 (peptide)
peptide: H[Aib]HGTFTSDYSIYLEKQAA[Aib]EFVQWLLEGGPSSGAPPPS-NH2
modifications: not fully specified (residue 16); printed as H-Aib-HGTFTSDYSIYLE-K[2-[2-[2-[[2-[2-[2-[[(4S)-4-carboxy-4-(19-carboxynonadecanoylamino)butanoyl]amino]ethoxy]ethoxy]acetyl]amino]ethoxy]ethoxy]acetyl]-QAA-Aib-EFVQWLLEGGPSSGAPPPS-NH2
As to B1, in the test with human glucagon receptor, the “hGcgR CRE Luc EC50 (pM)” value turned out to be 45.2 pM. For the same molecule, the “hGLP-1R CRE Luc EC50 (pM)” value in test [1] was determined as 1.8 pM. Further, in test [2], the “hGIPR CRE Luc EC50 (pM)” value was 6.1 pM.

B2: Compound No. 45 (peptide)
peptide: H[Aib]HGTFTSDYSILLEKQAA[Aib]EFVQWLLEGGPSSGAPPPS-NH2
modifications: not fully specified (residue 16); printed as H-Aib-HGTFTSDYSILLE-K[2-[2-[2-[[2-[2-[2-[[(4S)-4-carboxy-4-(19-carboxynonadecanoylamino)butanoyl]amino]ethoxy]ethoxy]acetyl]amino]ethoxy]ethoxy]acetyl]-QAA-Aib-EFVQWLLEGGPSSGAPPPS-NH2
Consider B2, for which the “hGcgR CRE Luc EC50 (pM)” value with human glucagon receptor came to 6.8 pM. Besides, the “hGLP-1R CRE Luc EC50 (pM)” value in test [1] turned out to be 2.4 pM. Besides, in test [2], the “hGIPR CRE Luc EC50 (pM)” value was found to be 1.9 pM.

B3: Compound No. 40 (peptide)
peptide: H[Aib]HGTFTSDYSYYLEKQAA[Aib]EFVQWLLEGGPSSGAPPPS-NH2
modifications: not fully specified (residue 16); printed as H-Aib-HGTFTSDYSYYLE-K[2-[2-[2-[[2-[2-[2-[[(4S)-4-carboxy-4-(19-carboxynonadecanoylamino)butanoyl]amino]ethoxy]ethoxy]acetyl]amino]ethoxy]ethoxy]acetyl]-QAA-Aib-EFVQWLLEGGPSSGAPPPS-NH2
For the molecule B3, the “hGcgR CRE Luc EC50 (pM)” value with human glucagon receptor was 36.4 pM. For the same molecule, the “hGLP-1R CRE Luc EC50 (pM)” value in test [1] was found to be 3.7 pM. Further, the “hGIPR CRE Luc EC50 (pM)” value in test [2] came to 5.7 pM.

B4: Compound No. 46 (peptide)
peptide: Y[Aib]QGTFTSDYSILLEKQAA[Aib]EFVQWLLEGGPSSGAPPPS-NH2
modifications: not fully specified (residue 16); printed as Y-Aib-QGTFTSDYSILLE-K[(2S)-2-amino-6-[[(2S)-2-amino-6-[[(4S)-4-carboxy-4-(19-carboxynonadecanoylamino)butanoyl]amino]hexanoyl]amino]hexanoyl]-QAA-Aib-EFVQWLLEGGPSSGAPPPS-NH2
Take B4: in the test with human glucagon receptor, the “hGcgR CRE Luc EC50 (pM)” value came to 25 pM. The “hGLP-1R CRE Luc EC50 (pM)” value in test [1] was found to be 8.3 pM. In test [2], the “hGIPR CRE Luc EC50 (pM)” value is 3 pM.

B5: Compound No. 49 (peptide)
peptide: H[Aib]HGTFTSDYSILLEKQAAEEFVQWLLEGGPSSGAPPPS-NH2
modifications: not fully specified (residue 16); printed as H-Aib-HGTFTSDYSILLE-K[(2S)-2-amino-6-[[(2S)-2-amino-6-[[(4S)-4-carboxy-4-(19-carboxynonadecanoylamino)butanoyl]amino]hexanoyl]amino]hexanoyl]-QAAEEFVQWLLEGGPSSGAPPPS-NH2
Turning to B5, the “hGcgR CRE Luc EC50 (pM)” value in the test with human glucagon receptor was 3.5 pM. Further, the “hGLP-1R CRE Luc EC50 (pM)” value in test [1] was 1.4 pM. The “hGIPR CRE Luc EC50 (pM)” value in test [2] turned out to be 2.1 pM.

B6: Compound No. 36 (peptide)
peptide: H[Aib]HGTFTSDYSKYLEKQAA[Aib]EFVQWLLEGGPSSGAPPPS-NH2
modifications: not fully specified (residue 16); printed as H-Aib-HGTFTSDYSKYLE-K[(2S)-2-amino-6-[[(2S)-2-amino-6-[[(4S)-4-carboxy-4-(19-carboxynonadecanoylamino)butanoyl]amino]hexanoyl]amino]hexanoyl]-QAA-Aib-EFVQWLLEGGPSSGAPPPS-NH2
Regarding B6, the “hGcgR CRE Luc EC50 (pM)” value with human glucagon receptor is 11.4 pM. For the same molecule, in test [1], the “hGLP-1R CRE Luc EC50 (pM)” value turned out to be 1.8 pM. In addition, the “hGIPR CRE Luc EC50 (pM)” value in test [2] is 9.3 pM.

B7: Compound No. 47 (peptide)
peptide: Y[Aib]QGTFTSDYSYYLEKQAA[Aib]EFVQWLLEGGPSSGAPPPS-NH2
modifications: not fully specified (residue 16); printed as Y-Aib-QGTFTSDYSYYLE-K[(2S)-2-amino-6-[[(2S)-2-amino-6-[[(4S)-4-carboxy-4-(19-carboxynonadecanoylamino)butanoyl]amino]hexanoyl]amino]hexanoyl]-QAA-Aib-EFVQWLLEGGPSSGAPPPS-NH2
B7: the “hGcgR CRE Luc EC50 (pM)” value with human glucagon receptor was found to be 28.7 pM. Besides, the “hGLP-1R CRE Luc EC50 (pM)” value in test [1] was 5.6 pM. For the same molecule, the “hGIPR CRE Luc EC50 (pM)” value in test [2] amounted to 14.9 pM.

B8: Compound No. 39 (peptide)
peptide: H[Aib]HGTFTSDYSIYLEKKYA[Aib]EFVQWLLEGGPSSGAPPPS-NH2
modifications: not fully specified (residue 16); printed as H-Aib-HGTFTSDYSIYLE-K[2-[2-[2-[[2-[2-[2-[[(4S)-4-carboxy-4-(19-carboxynonadecanoylamino)butanoyl]amino]ethoxy]ethoxy]acetyl]amino]ethoxy]ethoxy]acetyl]-KYA-Aib-EFVQWLLEGGPSSGAPPPS-NH2
B8: the “hGcgR CRE Luc EC50 (pM)” value with human glucagon receptor was determined as 12.9 pM. Further, the “hGLP-1R CRE Luc EC50 (pM)” value in test [1] turned out to be 4.4 pM. Further, the “hGIPR CRE Luc EC50 (pM)” value in test [2] stood at 17.9 pM.

B9: Compound No. 38 (peptide)
peptide: H[Aib]HGTFTSDYSIYLEKKYA[Aib]EFVQWLLEGGPSSGAPPPS-NH2
modifications: not fully specified (residue 16); printed as H-Aib-HGTFTSDYSIYLE-K[(2S)-2-amino-6-[[(2S)-2-amino-6-[[(4S)-4-carboxy-4-(17-carboxyheptadecanoylamino)butanoyl]amino]hexanoyl]amino]hexanoyl]-KYA-Aib-EFVQWLLEGGPSSGAPPPS-NH2
On to B9, for which the “hGcgR CRE Luc EC50 (pM)” value with human glucagon receptor came out at 6.4 pM. Also, the “hGLP-1R CRE Luc EC50 (pM)” value in test [1] is 2.8 pM. In test [2], the “hGIPR CRE Luc EC50 (pM)” value was 13.1 pM.

B10: Compound No. 42 (peptide)
peptide: H[Aib]HGTFTSDYSYLLEKQAA[Aib]EFVQWLLEGGPSSGAPPPS-NH2
modifications: not fully specified (residue 16); printed as H-Aib-HGTFTSDYSYLLE-K[(2S)-2-amino-6-[[(2S)-2-amino-6-[[(4S)-4-carboxy-4-(19-carboxynonadecanoylamino)butanoyl]amino]hexanoyl]amino]hexanoyl]-QAA-Aib-EFVQWLLEGGPSSGAPPPS-NH2
In the case of B10, the “hGcgR CRE Luc EC50 (pM)” value with human glucagon receptor turned out to be 8 pM. The “hGLP-1R CRE Luc EC50 (pM)” value in test [1] is 1.9 pM. Besides, the “hGIPR CRE Luc EC50 (pM)” value in test [2] came to 3.8 pM.

B11: Compound No. 43 (peptide)
peptide: H[Aib]HGTFTSDYSILLEKQAA[Aib]EFVQWLLEGGPSSGAPPPS-NH2
modifications: not fully specified (residue 16); printed as H-Aib-HGTFTSDYSILLE-K[(2S)-2-amino-6-[[(2S)-2-amino-6-[[(4S)-4-carboxy-4-(19-carboxynonadecanoylamino)butanoyl]amino]hexanoyl]amino]hexanoyl]-QAA-Aib-EFVQWLLEGGPSSGAPPPS-NH2
As to B11, in the test with human glucagon receptor, the “hGcgR CRE Luc EC50 (pM)” value stood at 10.8 pM. In addition, the “hGLP-1R CRE Luc EC50 (pM)” value in test [1] was 3 pM. For the same molecule, the “hGIPR CRE Luc EC50 (pM)” value in test [2] came out at 2.8 pM.

B12: Compound No. 41 (peptide)
peptide: H[Aib]HGTFTSDYSILLEKKYA[Aib]EFVQWLLEGGPSSGAPPPS-NH2
modifications: not fully specified (residue 16); printed as H-Aib-HGTFTSDYSILLE-K[(2S)-2-amino-6-[[(2S)-2-amino-6-[[(4S)-4-carboxy-4-(19-carboxynonadecanoylamino)butanoyl]amino]hexanoyl]amino]hexanoyl]-KYA-Aib-EFVQWLLEGGPSSGAPPPS-NH2
For the molecule B12, the “hGcgR CRE Luc EC50 (pM)” value with human glucagon receptor turned out to be 7.6 pM. The “hGLP-1R CRE Luc EC50 (pM)” value in test [1] was found to be 4.3 pM. The “hGIPR CRE Luc EC50 (pM)” value in test [2] was found to be 9.3 pM.

B13: Compound No. 37 (peptide)
peptide: H[Aib]HGTFTSDYSIYLEKRAA[Aib]EFVQWLLEGGPSSGAPPPS-NH2
modifications: not fully specified (residue 16); printed as H-Aib-HGTFTSDYSIYLE-K[(2S)-2-amino-6-[[(2S)-2-amino-6-[[(4S)-4-carboxy-4-(19-carboxynonadecanoylamino)butanoyl]amino]hexanoyl]amino]hexanoyl]-RAA-Aib-EFVQWLLEGGPSSGAPPPS-NH2
With B13, in the test with human glucagon receptor, the “hGcgR CRE Luc EC50 (pM)” value was determined as 11.8 pM. Further, in test [1], the “hGLP-1R CRE Luc EC50 (pM)” value was determined as 1.8 pM. In test [2], the “hGIPR CRE Luc EC50 (pM)” value was found to be 10.8 pM.

B14: Compound No. 48 (peptide)
peptide: Y[Aib]QGTFTSDYSYLLEKQAA[Aib]EFVQWLLEGGPSSGAPPPS-NH2
modifications: not fully specified (residue 16); printed as Y-Aib-QGTFTSDYSYLLE-K[(2S)-2-amino-6-[[(2S)-2-amino-6-[[(4S)-4-carboxy-4-(19-carboxynonadecanoylamino)butanoyl]amino]hexanoyl]amino]hexanoyl]-QAA-Aib-EFVQWLLEGGPSSGAPPPS-NH2
Take B14: the “hGcgR CRE Luc EC50 (pM)” value with human glucagon receptor came out at 12.6 pM. Moreover, in test [1], the “hGLP-1R CRE Luc EC50 (pM)” value came to 10.1 pM. For the same molecule, the “hGIPR CRE Luc EC50 (pM)” value in test [2] was determined as 9.2 pM.

(Values after patent US20230391845A1, “GLP-1, GIP AND GLUCAGON RECEPTOR TRIPLE AGONISTS” (priority 2020, published 2023).)
